Target: T1, PAG (protein associated with glycosphingolipid-enriched microdomains) (UniProt Q9NWQ8 1-432)
T1 construct: Endogenous protein of human tumor cell lines, probed by immunoblot in the CD55 immunoprecipitate
T1 sequence (looked up): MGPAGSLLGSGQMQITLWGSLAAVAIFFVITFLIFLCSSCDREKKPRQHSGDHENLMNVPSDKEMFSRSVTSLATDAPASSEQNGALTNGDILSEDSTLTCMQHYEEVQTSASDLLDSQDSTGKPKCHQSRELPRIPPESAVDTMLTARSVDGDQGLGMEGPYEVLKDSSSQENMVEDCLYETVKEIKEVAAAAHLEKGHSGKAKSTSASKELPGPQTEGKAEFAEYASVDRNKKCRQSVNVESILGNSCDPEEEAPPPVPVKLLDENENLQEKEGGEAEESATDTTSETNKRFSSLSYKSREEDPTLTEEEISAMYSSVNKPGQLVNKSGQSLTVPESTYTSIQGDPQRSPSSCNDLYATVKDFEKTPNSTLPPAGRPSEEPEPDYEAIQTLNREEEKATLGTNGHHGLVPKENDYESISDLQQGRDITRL
Assay: co-immunoprecipitation with anti-CD55 antibody from endometrioid CSC lysates, immunoblot for PAG
Method: Membranes were incubated overnight at 4° C. with primary antibodies against CD55 (1:1000) (Santa Cruz, Calif.), CD59 (1:1000) (Abcam), CD46 (1:1000) (Santa Cruz, Calif.), NANOG (1:500) (Cell Signaling), SOX2 (1:500) (Cell Signaling), OCT4 (1:500) (Cell Signaling), ROR2 (1:1000) (BD Biosciences), pJNK1 (1:1000) (T183/Y185) (Cell Signaling), JNK1 (1:1000) (Cell Signaling), p-c-Jun (1:1000) (S73) (Cell Signaling), p-c-Jun (1:1000) (S63) (Cell Signaling), c-Jun (1:1000) (Cell Signaling), pLCK (Y394) (1:1000) (BD Biosciences), LCK (1:1000) (Santa Cruz, Calif.), LIME (1:1000) (Invitrogen), PAG (1:1000) (Genetex), and (3-actin (1:1000) (Cell Signaling). Secondary anti-mouse or anti-rabbit IgG antibodies conjugated to horse radish peroxidase (HRP) (1:2000) (Thermo, Rockford, IL) were used and immunoreactive bands were visualized using the ECL plus from Pierce (Rockford, Ill., USA).
The lysates were spun at 12,000xg for 15 min at 4° C. Supernatants were incubated with rabbit anti-human CD55 primary antibody (SantaCruz, Calif.) and the corresponding antibody control for 1 hour at 4° C. Protein A/G agarose beads (Santa Cruz, Dallas, Tex.) were added to lysates which were subsequently incubated on a rotating mixer overnight at 4° C. The beads were then washed 3-4 times at 4° C., and Laemmli sample buffer was added to the beads and boiled for 5 minutes. […]

binding result: no binding
B1: CD55 (decay accelerating factor) (other, human, UniProt P08174 35-353, looked up)
chain: DCGLPPDVPNAQPALEGRTSFPEDTVITYKCEESFVKIPGEKDSVICLKGSQWSDIEEFCNRSCEVPTRLNSASLKQPYITQNYFPVGTVVEYECRPGYRREPSLSPKLTCLQNLKWSTAVEFCKKKSCPNPGEIRNGQIDVPGGILFGATISFSCNTGYKLFGSTSSFCLISGSSVQWSDPLPECREIYCPAPPQIDNGIIQGERDHYGYRQSVTYACNKGFTMIGEHSIYCTVNNDEGEWSGPPPECRGKSLTSKVPPTVQKPTTVNVPTTEVSPTSQKTTTKTTTPNAQATRSTPVSRTTKHFHETTPNKGSGTTS
modifications: GPI anchor (glycophosphatidylinositol-anchored to lipid rafts)
notes: Endogenous protein pulled down from 0.5% Triton X-100 cell lysates

Source: patent US20200121703A1 (CLEVELAND CLINIC FOUNDATION, published 2020)
